Assay results reported in CN113912709A (SHENZHEN NATIONAL CLINICAL RES CENTER FOR INFECTIOUS …, dated 2022).

Legend:
Assay in all cases: SPR, Biacore 8K, RBD on CM5 chip, IgG injected, 1:1 model
[1] = target: T1, SARS-CoV-2 Kappa variant RBD protein (L452R and E484Q) (SARS-CoV-2, UniProt P0DTC2 319-541)
T1 construct: domain: RBD; also called L452R和E484Q

[2] = target: T2, SARS-CoV-2 Delta variant RBD protein (L452R and T478K) (SARS-CoV-2, UniProt P0DTC2 319-541)
T2 construct: domain: RBD; also called L452R和T478K

[3] = target: T3, SARS-CoV-2 RBD protein T478K mutant (SARS-CoV-2, UniProt P0DTC2 319-541)
T3 construct: domain: RBD

[4] = target: T4, SARS-CoV-2 RBD protein E484Q mutant (SARS-CoV-2, UniProt P0DTC2 319-541)
T4 construct: domain: RBD

B1: VacW-209 (antibody, V domains shown)
VH: QVQLVESGGGVVQPGRSLRLSCAASGFTFSSIAMHWVRQAPGKGLEWVAVMSFDGSIKYYGDSVKGRFTISRDNSKSTLYLQMNSLRAEDTAVYYCARGVQGYYDRSGYYNLDYNYGMDVWGQGTTVTVSS
VL: QSVLTQPPSVSGAPGQRVTISCTGSSSNIGAGYDVHWYQQLPGTAPKLLIYGNSNRPSGVPDRFSGSKSGTSASLAITGLQAEDEADYYCQSYDSSLSGWVFGGGTKLTVL
Kd [1]: 0.0234 nM | Kd [2]: 0.0467 nM | Kd [3]: 0.023 nM | Kd [4]: 0.033 nM

B2: VacW-138 (antibody, V domains shown)
VH: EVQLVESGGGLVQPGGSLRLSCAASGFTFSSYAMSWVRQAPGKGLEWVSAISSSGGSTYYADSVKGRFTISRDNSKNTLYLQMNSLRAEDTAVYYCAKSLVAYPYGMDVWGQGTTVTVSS
VL: AIQLTQSPFSLSASVGDRVTITCRASQGISSALAWYQQKPGKAPKLLIYDASSLESGVPSRFSGSGSGTDFTLTISSLQPEDFATYFCQQVDTYQFTFGPGTKVDIK
Kd [1]: 3.17 nM | Kd [2]: 3.11 nM | Kd [3]: 1.75 nM | Kd [4]: 3.12 nM

B3: VacW-105 (antibody, V domains shown)
VH: QVQLVQSGAEVKKPGSSVKVSCKASGGTFRSYTISWVRQAPGQGLEWMGRILPILGIANYAQKFQGRVTITADKSTSTAYMELSSLRSEDTAVYYCARVTGAPVESAAWFDPWGQGTLVTVSS
VL: not shown
Kd [1]: 4.13 nM | Kd [2]: 5.1 nM | Kd [3]: 3.37 nM | Kd [4]: 5.22 nM

B4: VacW-201 (antibody, V domains shown)
VH: EVQLVESGGGLVQPGGSLRLSCAASGFTFSSYWMNWVRQAPGKGLEWVANIKQDGSEKYYVDSVKGRFTISRDNAKNSLYLQMNSLRAEDTAVYYCARMEYPYGGVDYWGQGTLVTVSS
VL: NFMLTQPHSVSESPGKTVTISCTGSSGSIASNYVQWYQQRPGSAPTTVIYEDNQRPSGVPDRFSGSIDSSSNSASLTISGLKTEDEADYYCQSYDSSNRNWVFGGGTKLTVL
Kd [1]: 1.71 nM | Kd [2]: 2.14 nM | Kd [3]: 1.64 nM | Kd [4]: 2.25 nM

B5: VacW-215 (antibody, V domains shown)
VH: EVQLVESGGGLIQPGGSLRLSCAASGFTVSSNYMSWVRQAPGKGLEWVSVIYSGGSTYYADSVKGRFTISRDNSKNTLYLQMNSLRAEDTAVYYCARSTWLRGGFDYWGQGTLVTVSS
VL: NFMLTQPHSVSESPGKTVTISCTGSSGSIASNYVQWYQQRPGSAPTTVIYEDNQRPSGVPDRFSGSIDSSSNSASLTISGLKTEDEADYYCQSYDSSNHFYVFGTGTKVTVL
Kd [1]: 0.676 nM | Kd [2]: 1.02 nM | Kd [3]: 0.683 nM | Kd [4]: 0.967 nM

B6: VacW-212 (antibody, V domains shown)
VH: EVQLVESGGGLVQPGGSLRLSCAASGFTFSSYWMNWVRQAPGKGLEWVANIKQDESEKYYVDSVKGRFTISRDNAKNSLFLQMNSLRVEDTAVYYCARMEYPYGGIDYWGQGTLVTVSA
VL: NFMLTQPHSVSESPGKTVTISCTGSSGSIASNYVQWYQQRPGSAPTTVIYEDNQRPSGVPDRFSGSIDSSSNSASLTISGLKTEDEADYYCQSYDSSNRNWVFGGGTKLTVL
Kd [1]: 1.32 nM | Kd [2]: 1.83 nM | Kd [3]: 1.22 nM | Kd [4]: 1.74 nM
